Usually Kd stands for the equilibrium constant for the complex coming apart. A higher Kd goes with weaker binding.

Consider 1 molecule from patent publication US20050042205A1 (Genentech, Inc., published 2005).

This test deals with rat luteal LH/CG receptor (LH/CG-R) expressed from the cloned cDNA (expression vector pCLHR) in transiently … (rat, UniProt P16235). Description: 125I-CG binding to intact 293 cells transfected with the LH/CG receptor cDNA.

B1: human choriogonadotropin, highly purified (CR-123; 12,780 IU/mg) (ligand)
chain 1: not shown
chain 2: SKEPLRPRCRPINATLAVEKEGCPVCITVNTTICAGYCPTMTRVLQGVLPALPQVVCNYRDVRFESIRLPGCPRGVNPVVSYAVALSCQCALCRRSTTDCGGPKDHPLTCDDPRFQDSSSSKAPPPSLPSPSRLPGPSDTPILPQ
In turn, B1 yielded a Kd of 0.08 to 0.16 nM.
